{"source": "paper doi:10.1101/2024.03.04.583391", "about": "(bioRxiv, 2024)", "binders": {"B1": {"name": "Dpr10-A, recombinant protein for SPR (domain or fragment, Drosophila melanogaster)", "chain": "WNEPYFDLTMPRNITSLVGKSAYLGCRVKHLGNKTVAWIRHRDLHILTVGTYTYTTDQRFQTSYHRDIDEWTLQIKWAQQRDAGVYECQISTQPVRSYSVNLNIVDLIDAETSDIMQQYYNDDAFYIAENRVYQSSNDEFAGMFGPIQTVAVPTATILGGPDLYVDKGSTINLTCIIKFSPEPPTHIFWYHQDKVLSEETSGGRLKFKTIKSEETKSILLIYDADLLHSGKYSCYPSNTEIASIRVHVLQGE"}}, "molecular_target": "T1, DIP-β-G, recombinant protein for SPR (Drosophila melanogaster)", "T1 chain": "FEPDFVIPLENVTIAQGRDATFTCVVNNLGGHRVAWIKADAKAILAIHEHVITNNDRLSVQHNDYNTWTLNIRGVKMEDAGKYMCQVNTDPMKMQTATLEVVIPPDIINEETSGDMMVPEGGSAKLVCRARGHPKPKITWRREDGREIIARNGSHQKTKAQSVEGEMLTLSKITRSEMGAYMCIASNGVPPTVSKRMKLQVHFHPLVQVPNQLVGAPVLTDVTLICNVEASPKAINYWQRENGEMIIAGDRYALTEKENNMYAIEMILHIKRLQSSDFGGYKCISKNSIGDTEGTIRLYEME", "test": "SPR"}
{"binder": "B1", "values": [{"measurement": "Kd", "result": 5.76, "unit": "µM"}]}
